Laboratory results: US20100184613A1
Where no end group is shown, it is not given here.

Tests used:
[1] = target: antibody C1, specific for the CRP-derived 8-mer PET sequence YEVQGEVF; experiment: peptide competition ELISA
[2] = target: antibody C1, specific for the CRP-derived 8-mer PET sequence YEVQGEVF; experiment: peptide competition ELISA; soluble peptide competes with coated target peptide for C1
[3] = target: antibody P1, specific for the PSA-derived 8-mer PET sequence EPAELTDA; experiment: peptide competition ELISA
[4] = target: antibody P1, specific for the PSA-derived 8-mer PET sequence EPAELTDA; experiment: peptide competition ELISA; soluble peptide competes with coated target peptide for P1

Row | Binder | fold higher concentration without effect, against the antigen PET YEVQGEVF [1] [fold] | IC50 [2] [µM] | fold higher concentration without effect, against the antigen PET EPAELTDA [3] [fold] | IC50 [4] [µM]
1 | EPAELTDA (not fully specified) [PSA-derived 8-mer PET peptide EPAELTDA] |  |  |  | 0.04
2 | YEVQGEVF [CRP-derived 8-mer PET peptide YEVQGEVF] |  | 1 |  | 
3 | DPTQLTDA [nearest-neighbor 8-mer peptide DPTQLTDA] |  |  | 25000 | > 1000

Other lines, results leading:

Row | fold higher concentration without effect, against the antigen PET YEVQGEVF [1] [fold] | IC50 [2] [µM] | fold higher concentration without effect, against the antigen PET EPAELTDA [3] [fold] | IC50 [4] [µM] | Binder
4 | > 1000 | > 1000 |  |  | YEVLGEEF [nearest-neighbor 8-mer peptide YEVLGEEF]
5 |  |  | 25000 | > 1000 | EPVELTSA [nearest-neighbor 8-mer peptide EPVELTSA]
6 | > 1000 | > 1000 |  |  | VEVNGEVF [nearest-neighbor 8-mer peptide VEVNGEVF]
